From paper PMC6085349, “Silkworms suppress the release of green leaf volatiles by mulberry leaves with an enzyme from their spinnerets” (Scientific Reports, 2018) come the findings set out here.

Substrate in the data set: CC/C=C\C[C@@H](/C=C/C=C\CCCCCCCC(=O)O)OO
Nature of the data set: purified protein. Format: biochemical, Bombyx mori. Conditions: typical assay 50 mM sodium borate pH 9.0, no cofactor, enzyme inactivates during turnover.

B1: BmFHD (Bombyx mori fatty acid hydroperoxide dehydratase) (Bombyx mori) (protein)
chain: GGLRTTWGVGLGLGTDFFYEIPRSLEEVKSQGWVLTDKADGLPLPSLALYCSEDRILCGFFDETEYVVGLQVSLPVDEVTDIIFDMPTQGFIIWETEVDGELKKFYSIQQYFINEDTLKQSVEDRLSKWDSSKTLQEKSIWVTGFNGTLLEISTVADDIANGDDFTKQACVPWMGRHYYYKMSAKTECKADTLLPWFPIVESGELIATGFISFLKLSNTYKWFEKPSKAAVQFIVPDGPKCLYDLAEDSGLTTMHIYYVNQPWLVSCLWQ
notes: native, purified from middle silk glands (MSG-A) of fifth instar larvae; 289 aa precursor with predicted 19-residue N-terminal signal peptide; 32 kDa on SDS-PAGE; no tag
By Km is commonly meant the substrate concentration at which the rate is half of its maximum. For B1, the Km was 1.13 µM.
